According to patent US7125969, “ETS-related gene overexpressed in human breast and epithelial cancers” (The Regents of the University of California):

What was measured:
[1] = target: T1, ESX (full-length, His-tagged) (Homo sapiens, UniProt P78545 SEQ:1-371); experiment: EMSA; high-affinity sequence-specific; ~1 ng protein, 0.3 pmol probe; conditions: tags: His-tag (pRSETA), E. coli BL21(DE3)pLysS; label: end-labeled
T1 sequence: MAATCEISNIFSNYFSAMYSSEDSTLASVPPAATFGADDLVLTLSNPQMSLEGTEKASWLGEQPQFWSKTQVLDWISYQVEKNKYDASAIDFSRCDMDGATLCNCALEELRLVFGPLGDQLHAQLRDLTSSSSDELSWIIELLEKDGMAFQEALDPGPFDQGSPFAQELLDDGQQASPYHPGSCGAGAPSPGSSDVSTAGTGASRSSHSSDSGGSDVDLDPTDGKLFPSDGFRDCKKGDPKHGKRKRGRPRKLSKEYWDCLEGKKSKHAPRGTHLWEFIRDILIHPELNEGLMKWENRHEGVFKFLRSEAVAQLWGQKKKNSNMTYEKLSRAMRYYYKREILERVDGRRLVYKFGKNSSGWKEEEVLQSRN
Method: (§1) Electrophoretic mobility shift assay (EMSA) was performed as previously described (Scott et al. (1994) *J. Biol. Chem.* 269: 19848–19858), using approximately one ng of ESX protein per condition and 0.3 pmol of end-labeled TA5 probe (+cold competitor). TA5 is a duplexed 31-mer oligonucleotide from the HER2/neu promoter, extending from −50 bp to −20 bp relative to the major transcriptional start site, that includes an Ets response element.

[2] = target: T2, ESX (271-371, ETS DNA-binding domain) (Homo sapiens, UniProt P78545 SEQ:271-371); experiment: EMSA; affinity comparable to full-length; conditions: label: end-labeled
T2 sequence: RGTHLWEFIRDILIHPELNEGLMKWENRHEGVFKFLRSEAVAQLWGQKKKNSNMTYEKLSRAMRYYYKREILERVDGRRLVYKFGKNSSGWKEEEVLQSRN

[3] = target: T1, ESX (full-length, His-tagged); experiment: competition; flanking mutation; relatively effective cold competitor at 50-fold excess; conditions: tags: His-tag (pRSETA), E. coli BL21(DE3)pLysS
Method: (§2) Five different competing unlabeled (cold) oligonucleotides containing specific mutations in the wild-type (WT) TA5 (SEQ ID NO:32) sequence, m1–m5 (SEQ ID NOs:33–37) were added at 50-fold molar excess; gel lanes containing the excess cold competitors are labeled. […] The antisense strand sequence as shown (~40 bp to ~26 bp upstream of major transcriptional start site in HER2/neu promoter) is marked with asterisk at the hypersensitivity site within Ets response element (GGAA on sense strand). FIGS. 8c and 8d show the induction of CAT activity from two different ETS-responsive reporter constructs (p3TA5-BLCAT5, pHER2-CAT) in COS cells cotransfected with an ESX expression plasmid (pcDNAI-ESX). Mutant reporter plasmids (p3TA5P-BLCAT5, pHER2m-CAT) are identical to their normal counterparts except for alterations in the Ets response element within the TA5 sequence (GGAA to GAGA and GGAA to TTAA, respectively).
as §1

[4] = target: T1, ESX (full-length, His-tagged); experiment: competition; GGAA core mutation; fails to compete at 50-fold excess; conditions: tags: His-tag (pRSETA), E. coli BL21(DE3)pLysS
Method: as §2, §1

B1: TA5 WT (HER2/neu promoter -50 to -20) (dsDNA)
DNA 1: GGAGGAGGGCTGCTTGAGGAAGTATAAGAAT
DNA 2: ATTCTTATACTTCCTCAAGCAGCCCTCCTCC
B1: binds [1]; binds [2].

B2: TA5 m5 (dsDNA)
DNA 1: GGAGGAGGGCTGCTTGAGGAAGCATAAGAAT
DNA 2: ATTCTTATGCTTCCTCAAGCAGCCCTCCTCC
B2: binds [3].

B3: TA5 m2 (dsDNA)
DNA 1: GGAGGAGGGCTGCTTGCGGAAGTATAAGAAT
DNA 2: ATTCTTATACTTCCGCAAGCAGCCCTCCTCC
B3: binds [3].

B4: TA5 m3 (dsDNA)
DNA 1: GGAGGAGGGCTGCTTGAGAGAGTATAAGAAT
DNA 2: ATTCTTATACTCTCTCAAGCAGCCCTCCTCC
B4: no binding [4].

B5: TA5 m1 (dsDNA)
DNA 1: GGAGGAGGTATGCTTGAGGAAGTATAAGAAT
DNA 2: ATTCTTATACTTCCTCAAGCATACCTCCTCC
B5: binds [3].

B6: TA5 m4 (dsDNA)
DNA 1: GGAGGAGGGCTGCTTGACCAAGTATAAGAAT
DNA 2: ATTCTTATACTTGGTCAAGCAGCCCTCCTCC
B6: no binding [4].
